Measured values published in PMC9517163 (2022).
Where a chain is given by its changes, count along the chain named.

B1: minke whale ACE2, mFc-tagged (Fc fusion)
chain: QSTTEEQAKTFLQKFDHEAEDLSYRSSLASWNYNTNITDENVQKMNAARAKWSAFYEEQSRIAKTYPLEEIQNLTLKRQLQALQQSGTSVLSADKSKRLNTILNTMSTIYSSGKVLDPNTQEYLVLEPGLDDIMENSEDYNRRLWAWEGWRAEVGKQLRPFYEEYVVLENEMARANNYEDYGDYWRGDYEVTGADGYDYSRNQLIADVERTFAEIKPLYEQLHAYVRAKLMDAYPSRISPTGCLPAHLLGDMWGRFWTNLYPLTVPFGEKPSIDVTKEMQNQSWDAKRIFKEAEKFFVSIGLPNMTQEFWVNSMLTEPGDGRKVVCHPTAWDLGKGDFRIKMCTKVTMDDFLTAHHEMGHIQYDMAYATQPFLLRNGANEGFHEAVGEIMSLSAATPHYLKALGLLPPDFYEDNVTEINFLLKQALQIVGTLPFTYMLEKWRWMVFKGEIPKEQWMQKWWEMKREIVGVVEPLPHDETYCDPACLFHVAEDYSFIRYYTRTIYQFQFHEALCQTAKHEGPLYKCDISNSTEAGQRLLQMLHLGKSEPWTLALENIVGVKTMDVKPLLNYFEPLLTWLKEQNRNSPVGWSTDWTPYSDQSIKVRISLKSALGEKAYEWNDNEMYLFQSSVAYAMREYFSKVRNETIPFGEKDVWVSDLKPRISFNFFVTTPKNVSDIIPRTEVEEAIRMSRGRINDAFRLDDNSLEFLGIQPTLGPPYEPPVT
B2: sperm whale ACE2, mFc-tagged (Fc fusion)
chain: QSTTEEQAKTFLQKFDHEAEDLSYQSSLASWNYNTNITDENVQKMNAARAKWSAFYEEQSRTAKTYPLEEIQNLTLKRQLQALQQSGTSVLSADKSKRLNTILNTMSTIYSSGKVLDPNTQECLVLEPGLDDIMENSEDYSRRLWAWEAWRAEVGKQLRPLYEEYVVLENEMARANNYEDYGDYWRGDYEVTGAGDYDYSRDQLITDVERTFAEIKPLYEQLHAYVRAKLMDAYPSRISPTGCLPAHLLGDMWGRFWTNLYPLTVPFGEKSSIDVTKEMRNQSWDAKRIFKEAEKFFVSIGLPNMTQEFWDNSMLTEPGDGRKVVCHPTAWDLGKGDFRIKMCTKVTMDDFLTARHEMGHIQYDMAYATQPYLLRNGANEGFHEAVGEIMSLSAATPHYLKALGLLPPDFYEDSATEINFLLKQALKIVGTLPFTYMLEKWRWMVFKGEIPKEQWMQKWWEMKREIVGVVEPLPHDETYCDPACLFHVAEDYSFIRYYTRTIYQFQFHEALCQAAKHEGPLYKCDISNSTEAGQRLLQMLHLGKSEPWTSALENIVGVKTMDVKPLLNYFEPLLTWLKDQNRNSFVGWSTDWTPYSDQSIKVRISLKSALGEKAYEWNDNEMYLFRSSVAYAMREYFSKVRNETIPFGEEDVRVGDLKPRISFTFFVTSPKNVSDIIPRTEVEEAIRMSRGRINDAFRLDDNSLEFLGIEPTLGPPYEPPVT
B3: fur seal ACE2, mFc-tagged (Fc fusion)
chain: RSTTEDLVKTFLEKFNSEAEELSYQSSFASWNYNTNITDENVQKMNDAGAKWSAFYEEQSKQAKTYPLEEIQDSTVKRQLQALQHSGSSVLSVDKSQRLNTILNAMSTIYSTGKACNPNNPQECLLLEPGLDDIMANSRDYNERLWAWEGWRSEVGKQLRPLYEEYVALKNEMARANNYEDYGDYWRGDYEEEWTNGYNYSRDQLIKDVEQTFTQIQPLYEHLHAYVRAKLMDTYPSHISPTGCLPAHLLGDMWGRFWTNLYPLTVPFGQKPNIDVTDTMVNQSWDARRIFEEAEKFFVSVGLPNMTQGFWENSMLTEPGDSRKVVCHPTAWDLGKHDFRIKMCTKVTMDDFLTAHHEMGHIQYDMAYAAQPFLLRNGANEGFHEAVGEIMSLSAATPKHLKNIGLLPPGFSEDNETDINFLFKQALTIVGTLPFTYMLEKWRWMVFKGEIPKEQWMKKWWEMKRDLVGVVEPLPHDETYCDPASLFHVANDYSFIRYYTRTIYQFQFQEALCQIAKHEGPLHKCDISNSSEAGQTLLQMLKLGRSKPWTLALYRVVGAKNMDVRPLLNYFDPLFTWLKEQNRNSFVGWNTDWSPYADQSIKVRISLKSALGEKAYEWNDNEMYLFRSSIAYAMREYFSKVKKQTIPFVEDNVWVNNLKPRISFTFFVTSPGNMSDIIPRADVEEAIRMSRGRINDAFRLDDNSLEFLGIQPTLEPPYQPPVT
B4: sea lion ACE2, mFc-tagged (Fc fusion)
chain: B3 chain with F28L, V93A, I239M, K643N, T645M
B5: dolphin ACE2, mFc-tagged (Fc fusion)
chain: QSATEERAKTFLQKFDREAEDLSYQSSLASWNYNTNITDENVQKMNAAGAKWSAFYEEQSRIAKTYPLEEIRNLTLKRQLQVLQQSGTSVLSADKSKRLNAILSTMSTIYSSGKVLDPNTQESLVLEPGLDDIMENSKDYNRRLWAWEGWRAEVGKQLRPLYEEYVVLENEMARANNYEDYGDYWRGDYEVTGAGDYDYSRDQLIRDVERTFAEIKPLYEQLHAYVRAKLMDAYPSRISPTGCLPAHLLGDMWGRFWTNLYPLTVPFGERPSIDVTKEMQNQSWDAKRIFKEAEKFFVSIGLPNMTQGFWDNSMLTEPGDGRKVVCHPTAWDLGKGDFRIKMCTKVTMDDFLTAHHEMGHIQYDMAYATQPYLFRNGANEGFHEAVGEIMSLSAATPHYLKALGLLPPDFYEDSATEINFLLKQALTIVGTLPFTYMLEKWRWMVFKGEIPKEQWMQKWWEMKREIVGVVEPLPHDETYCDPACLFHVAEDYSFIRYYTRTIYQFQFHEALCQTAKHEGPLYKCDISNSTEAGQRLLQMLHLGKSEPWTSALERIVGVKTMDVKPLLNYFEPLLTWLKGQNRNSFVGWRTDWTPYSNQSIKVRISLKSALGEKAYEWNDNEMYLFRSSVAYAMREYFSKVRNKTIPFGEKDVWVSDLKPRISFNFFVTSPKNMSDIIPRTEVEEAIRMSRGRINDAFRLDDSSLEFLGVQPTLAPPYEPPVT

Biological target: SARS-CoV-2 receptor-binding domain (RBD), prototype (SARS-CoV-2, UniProt P0DTC2)
Experiment: SPR

Question: B1 was tested. Which Kd did it give?
Answer: 175 nM

Question: With B2 as the binder, how does the Kd read?
Answer: 234 nM

Question: How did the Kd turn out when B3 was run?
Answer: 129 nM

Question: B4 was tested. Which Kd did it give?
Answer: 171 nM

Question: How did the Kd turn out when B5 was run?
Answer: 562 nM
